Source: PMC5553682

Biological target: GFP-Cav3.1 pore mutant (human)
Test: FRET or BRET; live tsA-201 cells also expressing Kir2.1, exposed to high [K]o (50 mM); % change of the mKate:GFP ratio against time 0; the decrease was prevented by TTA-P2, mibefradil + Ni2+ or BAPTA-AM

mKate-CaM (from UniProt P0DP23 1-149) (natural protein)
% change of FRET (mKate:GFP ratio) in high [K]o: 4.55%
